The subject of assay [1] is 8226 cells. Description: Viability of 8226 myeloma cells (MTT). It counts as cell-based, human. Particulars: 5 μg/ml, cells lack FGFR3 expression. The source says:
FIG. 2 is a graph showing the viability of human myeloma cell lines in the presence of PRO-001. Viability is reported as the ratio between the optical density (OD) in the presence of FGF±inhibitor and the OD in the absence of FGF.
Non-transformed rat chondrocyte cell line expressing PGFR3 in an inducible manner (RCJ-FGFR3) has been described previously (Rauchenberger R. et al. J. Biol. Chem. 2003; 278:38194-205). Cells were maintained in α-Minimum Essential Media supplemented with 15% fetal calf serum (FCS), 2 mM L-Glutamine, 100 U/ml penicillin, 100 μg/ml streptomycin, 600 μg/ml G418 (Gibco BRL, Ontario, Canada), 2 μg/ml Tetracyclin (Sigma, Ontario, Canada), and 50 μg/ml HygromycinB (Gibco BRL). […]
(§1) Cell viability was assessed by 3-(4,5-dimethylthiazol)-2,5-diphenyl tetrazolium (MTT) or (2,3-bis(2-methoxy-4-nitro-5-sulphophenyl)-5-[(phenylamino) carbonyl]-2H-tetrazolium hydroxide (XTT) dye absorbance where indicated. Cells were seeded in 96-well plates at a density of 20,000 (FDCP-1 cells), 5,000 (B9 cells) or 25,000 cells (MM cell lines) per well in culture medium. Cells were incubated in the absence or presence of one of the following cytokines: 10 ng/ml FGF9 and 5 μg/ml heparin, 1% murine IL-6, 50 ng/ml IGF-1 or 50 ng/ml human IL-6 where indicated and increasing concentrations of PRO-001, control antibody (purified human Fab) or 100 nM PD173074. […]

For assay [2], the target named is T1, FGFR3-Y373C (Homo sapiens, UniProt P22607, Y373C).
T1 construct: expressed in transfected cells; host or cells: B9 cells
Description: FGF-stimulated growth of B9 cells expressing Y373C-FGFR3. Format: cell-based. The method, then: Non-transformed rat chondrocyte cell line expressing PGFR3 in an inducible manner (RCJ-FGFR3) has been described previously (Rauchenberger R. et al. J. Biol. Chem. 2003; 278:38194-205). Cells were maintained in α-Minimum Essential Media supplemented with 15% fetal calf serum (FCS), 2 mM L-Glutamine, 100 U/ml penicillin, 100 μg/ml streptomycin, 600 μg/ml G418 (Gibco BRL, Ontario, Canada), 2 μg/ml Tetracyclin (Sigma, Ontario, Canada), and 50 μg/ml HygromycinB (Gibco BRL). FGFR3 expression was induced by removal of tetracyclin and serum starvation. […]
as §1

The target of assay [3] is T2, FGFR2 (Homo sapiens, UniProt P21802).
T2 construct: was transfected with full length FGFR1 (FDCP-FGFR1), FGFR2 (FDCP-FGFR2), FGFR3 (FDCP-FGFR3); expressed in transfected cells; host or cells: FDCP-1 mouse myeloid progenitor cell line
Description: FGF-stimulated proliferation of FDCP-FGFR2 cells (XTT). Format: cell-based. The note with it: up to 10 fold higher concentrations than the FDCP-FGFR3 IC50.
Text: FIG. 1D is a graph showing proliferation of FGFR expressing FDCP cells in the presence of increasing concentrations of PRO-001 as determined by XTT analysis. Data are the average of duplicate cultures. The X axis represents concentration of PRO-001 Fab. The Y axis represents % inhibition.
Non-transformed rat chondrocyte cell line expressing PGFR3 in an inducible manner (RCJ-FGFR3) has been described previously (Rauchenberger R. et al. J. Biol. Chem. 2003; 278:38194-205). […]
as §1
(In general: Tetrazolium assays rely on reduction of a dye to a coloured formazan, in cell work by metabolically active cells.)

The results in this text go back to patent publication US20090175866A1, “TREATMENT OF B-CELL MALIGNANCIES” (priority 2004, published 2009).

T1 sequence (P22607 23-806 Y373C): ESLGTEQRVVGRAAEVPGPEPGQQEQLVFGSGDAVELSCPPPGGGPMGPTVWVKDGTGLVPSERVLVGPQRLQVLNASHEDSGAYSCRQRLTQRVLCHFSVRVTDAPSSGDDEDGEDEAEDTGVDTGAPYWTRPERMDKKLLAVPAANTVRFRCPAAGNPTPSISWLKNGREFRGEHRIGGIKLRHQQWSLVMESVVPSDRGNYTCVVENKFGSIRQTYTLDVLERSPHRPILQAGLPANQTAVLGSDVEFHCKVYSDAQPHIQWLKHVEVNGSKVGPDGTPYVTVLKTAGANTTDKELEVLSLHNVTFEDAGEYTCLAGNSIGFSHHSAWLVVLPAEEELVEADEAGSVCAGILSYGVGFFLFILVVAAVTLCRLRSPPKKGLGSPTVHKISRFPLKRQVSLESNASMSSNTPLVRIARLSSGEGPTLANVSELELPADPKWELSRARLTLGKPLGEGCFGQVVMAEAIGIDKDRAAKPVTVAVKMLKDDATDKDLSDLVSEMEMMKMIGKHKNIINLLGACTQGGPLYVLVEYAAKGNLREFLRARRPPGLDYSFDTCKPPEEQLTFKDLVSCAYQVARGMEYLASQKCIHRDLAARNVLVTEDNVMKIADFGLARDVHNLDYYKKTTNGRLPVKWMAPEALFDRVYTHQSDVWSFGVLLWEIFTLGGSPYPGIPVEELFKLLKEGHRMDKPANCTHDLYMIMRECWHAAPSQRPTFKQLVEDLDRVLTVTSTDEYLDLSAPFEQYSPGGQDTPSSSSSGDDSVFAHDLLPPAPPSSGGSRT
T2 sequence (P21802 22-821, species assumed): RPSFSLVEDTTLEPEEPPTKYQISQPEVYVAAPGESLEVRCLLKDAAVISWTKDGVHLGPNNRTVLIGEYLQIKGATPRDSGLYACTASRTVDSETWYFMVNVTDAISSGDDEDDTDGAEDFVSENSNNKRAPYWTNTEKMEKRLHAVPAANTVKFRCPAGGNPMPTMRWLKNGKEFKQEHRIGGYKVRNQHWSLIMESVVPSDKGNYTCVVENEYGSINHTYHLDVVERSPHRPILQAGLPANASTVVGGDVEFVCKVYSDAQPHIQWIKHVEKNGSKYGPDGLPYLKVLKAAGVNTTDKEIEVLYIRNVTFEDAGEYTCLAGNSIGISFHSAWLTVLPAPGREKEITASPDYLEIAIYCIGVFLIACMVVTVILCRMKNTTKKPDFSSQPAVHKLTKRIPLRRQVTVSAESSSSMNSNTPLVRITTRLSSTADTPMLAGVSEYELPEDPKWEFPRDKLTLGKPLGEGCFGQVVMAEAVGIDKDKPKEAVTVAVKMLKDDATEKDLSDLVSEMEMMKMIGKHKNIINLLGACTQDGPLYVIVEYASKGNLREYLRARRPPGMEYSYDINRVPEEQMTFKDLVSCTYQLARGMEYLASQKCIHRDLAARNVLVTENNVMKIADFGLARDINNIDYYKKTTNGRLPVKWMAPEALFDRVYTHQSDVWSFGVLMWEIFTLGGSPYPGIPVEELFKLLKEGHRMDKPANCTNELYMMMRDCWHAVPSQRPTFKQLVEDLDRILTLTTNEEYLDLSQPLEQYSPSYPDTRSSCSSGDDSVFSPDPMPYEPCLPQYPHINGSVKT

B1: PRO-001: human anti-FGFR3 Fab from HuCAL library; VH-CDR3 SEQ ID NO:1, VL-CDR3 SEQ ID NO:10; VH SEQ ID NO:19, VL SEQ ID NO:28 (antibody, V domains shown)
VH: QVQLQQSGPGLVKPSQTLSLTCAISGDSVSSNSAAWNWIRQSPGRGLEWLGRTYYRSKWYNDYAVSVKSRITINPDTSKNQFSLQLNSVTPEDTAVYYCARSYYPDFDYWGQGTLVTVSS
VL: DIELTQPPSVSVAPGQTARISCSGDALGDKYASWYQQKPGQAPVLVIYDDSDRPSGIPERFSGSNSGNTATLTISGTQAEDEADYYCQSYDGPDLWVFGGGTKLTVLGQ
For B1, in assay [1], the “Cell growth of 8226 cells in the presence of FGF” value is recorded as “resistant”. The “IC50, FGF-stimulated growth of cells expressing Y373C-FGFR3” value in assay [2] is “approximately 3 μg/ml”. Also, the “Proliferation of FDCP-1 cells expressing FGFR2” value in assay [3] was “unaffected”.
